Test results reported in US20190359687A1 (Bayer, published 2019).

T1: purified human glycophorin A protein (Sigma, cat # G5017) (human, UniProt P02724 20-150)
T1 construct: mature; also called Sigma hGPA; Sigma GPA
T1 sequence (looked up): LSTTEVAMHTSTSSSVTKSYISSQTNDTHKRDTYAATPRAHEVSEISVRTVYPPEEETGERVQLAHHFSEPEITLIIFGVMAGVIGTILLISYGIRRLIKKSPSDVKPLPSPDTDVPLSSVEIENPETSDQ

T2: human glycophorin A in the red blood cell membrane (human, UniProt P02724 20-150)
T2 construct: whole, on cells; used for intact RBC, isolated RBC membranes and transfected cells; the assay field tells which; also called GPA; hGPA
T2 sequence (looked up): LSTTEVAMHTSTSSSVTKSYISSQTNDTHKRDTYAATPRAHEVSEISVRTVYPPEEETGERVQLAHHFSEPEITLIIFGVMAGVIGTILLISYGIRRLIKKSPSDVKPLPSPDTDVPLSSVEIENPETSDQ

T3: recombinant human GPA ectodomain (human, UniProt P02724 20-91)
T3 construct: also called recombinant hGPA ECD; recGPA
T3 sequence: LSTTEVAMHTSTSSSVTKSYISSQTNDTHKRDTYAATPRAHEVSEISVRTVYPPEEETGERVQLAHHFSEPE

T4: human glycophorin A on human red blood cells (human, UniProt P02724 20-150)
T4 construct: whole, on cells; also called human GPA; huGPA
T4 sequence (looked up): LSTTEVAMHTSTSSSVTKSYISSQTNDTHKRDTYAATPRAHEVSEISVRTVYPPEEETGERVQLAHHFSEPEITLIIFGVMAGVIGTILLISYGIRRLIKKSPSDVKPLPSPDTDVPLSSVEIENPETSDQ

T5: human glycophorin A on human red blood cells or red blood cell membranes (human, UniProt P02724 20-150)
T5 construct: whole, on cells; also called hRBC; human RBC membranes
T5 sequence (looked up): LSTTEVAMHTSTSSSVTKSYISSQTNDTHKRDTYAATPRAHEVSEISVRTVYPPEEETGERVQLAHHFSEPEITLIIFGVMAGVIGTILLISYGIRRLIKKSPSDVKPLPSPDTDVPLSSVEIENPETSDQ


What was measured:
[1] = target: T1, purified human glycophorin A protein …; test: ELISA, native hGPA
[2] = target: T2, human glycophorin A in the red blood …; test: ELISA, human RBC membranes;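 further: antibodies bound to isolated human red blood cell membrane ghosts coated on 96-well plates, tested 1.5 h at room temperature, bound antibody quantified with a detection antibody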
Description: In order to evaluate binding of antibodies to GPA in the native context of the red blood cell membrane we made use of isolated red blood cell membranes, also called red blood cells ghosts. These membranes are prepared by first isolating red blood cells from citrated whole blood. Citrated whole blood is layered on to Ficol and centrifuged at low speed for 20 minutes to pellet the red blood cells. The supernatant containing plasma and other blood cells is discarded and the red blood cell pellet is subsequently washed 3 times in 10 cell volumes of phosphate buffered saline (PBS). A 10 ml pellet of purified red blood cells is resuspended in 30 ml of cold low osmorality 20 mM phosphate buffer (pH7.4) and incubated for 30 mins to break open the RBC. After Centrifugation at 10,000 rpm for 30 min at 5° C. the hemoglobin containing supernatant is discarded. To the membrane pellet another 30 ml of 20 mM phosphate buffer is added and the sample centrifuged again at 10,000 rpm for 30 min at 5° C. to pellet the membrane fraction. This wash and centrifugation step is repeated another 4 times. The red blood cell membranes are then resuspended in 20 mL of PBS to achieve an equivalent of approximately 2.5E9 cells/mL and stored frozen at −20° C. Binding of antibodies to RBC ghost can be measured by ELISA in which the RBC ghost suspension (5×10⁶ in 100 ul PBS) was added to each well of flat bottom 96-well ELISA microtiter plates (2HB, Immunolon) and the plates incubated overnight at 4° C. The plates were blocked with Starting blocking buffer (Thermo Fisher) for 2 hours at room temperature (RT). Antibodies or other test molecules were added to each well and incubated for 1.5 hours at RT. After 4 washes 100 ul of an appropriate detection antibody was added to each well and incubated for 1 hour at RT. After 4 washes the detection antibody was measured using appropriate detection reagents.

[3] = target: T3, recombinant human GPA ectodomain; test: ELISA, rec hGPA ectodomain
[4] = target: T2, human glycophorin A in the red blood …; test: SPR (Biacore), single cycle kinetics, human RBC membranes on L1 sensor, Fab flowed over
Description: Kinetic analysis of the antibody binding to human red blood cell membranes was also performed using surface plasmon resonance (SPR) using a Biacore instrument. In this assay membranes prepared from human red blood cells were attached to a L1 sensor matrix and antibodies were flowed over the RBC membranes.

[5] = target: T4, human glycophorin A on human red blood …; test: partition to human RBC, vWF deficient plasma, 1 min
[6] = target: T4, human glycophorin A on human red blood …; test: partition to human RBC, vWF deficient plasma, 5 min
[7] = target: T4, human glycophorin A on human red blood …; test: partition to human RBC, vWF deficient plasma, 15 min
[8] = target: T4, human glycophorin A on human red blood …; test: partition to human RBC, vWF deficient plasma, 30 min
[9] = target: T4, human glycophorin A on human red blood …; test: partition to human RBC, vWF deficient plasma, 60 min
[10] = target: T4, human glycophorin A on human red blood …; test: partition to human RBC, vWF deficient plasma, 120 min
[11] = target: T5, human glycophorin A on human red blood …; test: scFv 7 ug/ml on intact human RBC, unbound scFv by ELISA; pre-dilution
Description: (§1) RBC diluted to 1/10th of normal hematocrit were incubated with the set of “Top 10” purified scFv antibodies at a final concentration of 7 ug/ml for 1 hour at room temperature on a rotating shaker after which a sample was taken and the RBC were pelleted by centrifugation and the supernatant was collected. The remaining RBC suspension was diluted 200-fold in PBS buffer and incubated for a total of 2 hours at room temperature on a rotating shaker and samples were removed at 0, 5 min, 20 min, 1 h and 2 h and the RBC pelleted and the supernatant collected. […] The percentage that remains bound after dilution is an indication of the overall strength of the binding to human RBC.

[12] = target: T5, human glycophorin A on human red blood …; test: scFv on intact human RBC, unbound scFv by ELISA; 0 min after 200-fold dilution
Description: as §1

[13] = target: T5, human glycophorin A on human red blood …; test: scFv on intact human RBC, unbound scFv by ELISA; 5 min after 200-fold dilution
Description: as §1

[14] = target: T5, human glycophorin A on human red blood …; test: scFv on intact human RBC, unbound scFv by ELISA; 20 min after 200-fold dilution
Description: as §1

[15] = target: T5, human glycophorin A on human red blood …; test: scFv on intact human RBC, unbound scFv by ELISA; 60 min after 200-fold dilution
Description: as §1

[16] = target: T5, human glycophorin A on human red blood …; test: scFv on intact human RBC, unbound scFv by ELISA; 120 min after 200-fold dilution
Description: as §1

| Kd [4] [nM] | koff [4] [s⁻¹] | kon [4] [M⁻¹ s⁻¹] | percentage of input scFv antibody bound [11] [%] | percentage of input scFv antibody bound [12] [%] | percentage of input scFv antibody bound [13] [%] | percentage of input scFv antibody bound [14] [%] | percentage of input scFv antibody bound [15] [%] | percentage of input scFv antibody bound [16] [%] | Binder | also measured |
| --- | --- | --- | --- | --- | --- | --- | --- | --- | --- | --- |
| 25 | 0.019 | 740000 |  |  |  |  |  |  | TPP-5348 (Fab, V domains shown, also called VL: (S49A)) VH: EVQLVQSGAEVKKPGASVKVSCKASGYTFTTYTIHWVRQAPGQGLEWIGYINPSSDYTRYNPKFKDRVTLTTDKSTSTAYMELRSLRSDDTAVYYCQTGTRDYWGQGTTVTVSS VL: DIQLTQSPSFLSASVGDRVTITCSAASSVSYIYWFQQKPGKAPKLLIYATSTLPSGVPSRFSGSGSGTEYTLTISSLQPEDFATYYCHQRNSFPFTFGQGTKLEIKR | binding by ELISA relative to parental [1]: 1.62; binding by ELISA relative to parental [2]: 1.76; binding by ELISA relative to parental [3]: 1.5 |
| 34 | 0.021 | 610000 |  |  |  |  |  |  | TPP-5350 (Fab, V domains shown, also called VL: (P54Q)) VH: EVQLVQSGAEVKKPGASVKVSCKASGYTFTTYTIHWVRQAPGQGLEWIGYINPSSDYTRYNPKFKDRVTLTTDKSTSTAYMELRSLRSDDTAVYYCQTGTRDYWGQGTTVTVSS VL: DIQLTQSPSFLSASVGDRVTITCSAASSVSYIYWFQQKPGKAPKLLIYSTSTLQSGVPSRFSGSGSGTEYTLTISSLQPEDFATYYCHQRNSFPFTFGQGTKLEIKR | binding by ELISA relative to parental [1]: 1.45; binding by ELISA relative to parental [2]: 1.64; binding by ELISA relative to parental [3]: 1.7 |
| 130 | 0.048 | 370000 |  |  |  |  |  |  | Fab papain 6C12-24 (Fab, V domains shown, also called parent: Fab 6C12-24) VH: EVQLVQSGAEVKKPGASVKVSCKASGYTFTTYTIHWVRQAPGQGLEWIGYINPSSDYTRYNPKFKDRVTLTTDKSTSTAYMELRSLRSDDTAVYYCQTGTRDYWGQGTTVTVSS VL: DIQLTQSPSFLSASVGDRVTITCSAASSVSYIYWFQQKPGKAPKLLIYSTSTLPSGVPSRFSGSGSGTEYTLTISSLQPEDFATYYCHQRNSFPFTFGQGTKLEIK |  |
|  |  |  |  |  |  |  |  |  | TPP-9161 FVIII-scFv fusion protein (other, also called PPB 7644) ATRRYYLGAVELSWDYMQSDLGELPVDARFPPRVPKSFPFNTSVVYKKTLFVEFTDHLFNIAKPRPPWMGLLGPTIQAEVYDTVVITLKNMASHPVSLHAVGVSYWKASEGAEYDDQTSQREKEDDKVFPGGSHTYVWQVLKENGPMASDPLCLTYSYLSHVDLVKDLNSGLIGALLVCREGSLAKEKTQTLHKFILLFAVFDEGKSWHSETKNSLMQDRDAASARAWPKMHTVNGYVNRSLPGLIGCHRKSVYWHVIGMGTTPEVHSIFLEGHTFLVRNHRQASLEISPITFLTAQTLLMDLGQFLLFCHISSHQHDGMEAYVKVDSCPEEPQLRMKNNEEAEDYDDDLTDSEMDVVRFDDDNSPSFIQIRSVAKKHPKTWVHYIAAEEEDWDYAPLVLAPDDRSYKSQYLNNGPQRIGRKYKKVRFMAYTDETFKTREAIQHESGILGPLLYGEVGDTLLIIFKNQASRPYNIYPHGITDVRPLYSRRLPKGVKHLKDFPILPGEIFKYKWTVTVEDGPTKSDPRCLTRYYSSFVNMERDLASGLIGPLLICYKESVDQRGNQIMSDKRNVILFSVFDENRSWYLTENIQRFLPNPAGVQLEDPEFQASNIMHSINGYVFDSLQLSVCLHEVAYWYILSIGAQTDFLSVFFSGYTFKHKMVYEDTLTLFPFSGETVFMSMENPGLWILGCHNSDFRNRGMTALLKVSSCDKNTGDYYEDSYEDISAYLLSKNNAIEPRSFSQNGGGGSTGGTGGSSGGGTGSGGGGTGGSGGTDIQLTQSPSFLSASVGDRVTITCRASSSVRYIYWFQQKPGKAPKLLIYATSFRQSGVPSRFSGSGSGTEYTLTISSLQPEDFATYYCHQRNSFPYTFGQGTKLEIKGGGGSGGGGSGGGGSGGGGSEVQLVQSGAEVKKPGASVKVSCKASGYTFTTYAIHWVRQAPGQGLEWMGYINPSSGYTRYNPKFKGRVTMTRDKSTSTAYMELRSLRSDDTAVYYCWTGTRDYWGQGTTVTVSSGGGGSQNPPVLKRHQREITDENQSPRSFQKKTRHYFIAAVERLWDYGMSSSPHVLRNRAQSGSVPQFKKVVFQEFTDGSFTQPLYRGELNEHLGLLGPYIRAEVEDNIMVTFRNQASRPYSFYSSLISYEEDQRQGAEPRKNFVKPNETKTYFWKVQHHMAPTKDEFDCKAWAYFSDVDLEKDVHSGLIGPLLVCHTNTLNPAHGRQVTVQEFALFFTIFDETKSWYFTENMERNCRAPCNIQMEDPTFKENYRFHAINGYIMDTLPGLVMAQDQRIRWYLLSMGSNENIHSIHFSGHVFTVRKKEEYKMALYNLYPGVFETVEMLPSKAGIWRVECLIGEHLHAGMSTLFLVYSNKCQTPLGMASGHIRDFQITASGQYGQWAPKLARLHYSGSINAWSTKEPFSWIKVDLLAPMIIHGIKTQGARQKFSSLYISQFIIMYSLDGKKWQTYRGNSTGTLMVFFGNVDSSGIKHNIFNPPIIARYIRLHPTHYSIRSTLRMELMGCDLNSCSMPLGMESKAISDAQITASSYKTNMFATWSPSKARLHLQGRSNAWRPQVNNPKEWLQVDFQKTMKVTGVTTQGVKSLLTSMYVKEFLISSSQDGHQWTLFFQNGKVKVFQGNQDSFTPVVNSLDPPLLTRYLRIHPQSWVHQIALRMEVLGCEAQDLY | percentage bound to human RBC [5]: 51.4%; percentage bound to human RBC [6]: 78.4%; percentage bound to human RBC [7]: 82.9%; percentage bound to human RBC [8]: 85.9%; percentage bound to human RBC [9]: 86.2%; percentage bound to human RBC [10]: 84.2% |
|  |  |  | 92 | 92 | 92 | 84 | 81 | 79 | TPP-7793 scFv with C-terminal 6xHIS tag (scFv) scFv: DIQLTQSPSFLSASVGDRVTITCRASSSVSYIYWFQQKPGKAPKLLIYATSTLQSGVPSRFSGSGSGTEYTLTISSLQPEDFATYYCHQRNSFPYTFGQGTKLEIKGGGGSGGGGSGGGGSGGGGSEVQLVQSGAEVKKPGASVKVSCKASGYTFTRYTIHWVRQAPGQGLEWMGYINPSSGYTRYNPKFKGRVTMTRDKSTSTAYMELRSLRSDDTAVYYCWTGTRDYWGQGTTVTVSSHHHHHH |  |
|  |  |  | 100 | 100 | 85 | 82 | 84 | 80 | TPP-7795 scFv with C-terminal 6xHIS tag (scFv) scFv: DIQLTQSPSFLSASVGDRVTITCRASSSVSYIYWFQQKPGKAPKLLIYATSFLQSGVPSRFSGSGSGTEYTLTISSLQPEDFATYYCHQRNSFPYTFGQGTKLEIKGGGGSGGGGSGGGGSGGGGSEVQLVQSGAEVKKPGASVKVSCKASGYTFTTYTIHWVRQAPGQGLEWMGYINPKSGWTRYNPKFKGRVTMTRDKSTSTAYMELRSLRSDDTAVYYCQTGTRDYWGQGTTVTVSSHHHHHH |  |
|  |  |  | 98 | 98 | 98 | 98 | 99 | 97 | TPP-7797 scFv with C-terminal 6xHIS tag (scFv) scFv: DIQLTQSPSFLSASVGDRVTITCRASSSVRYIYWFQQKPGKAPKLLIYATSFRQSGVPSRFSGSGSGTEYTLTISSLQPEDFATYYCHQRNSFPYTFGQGTKLEIKGGGGSGGGGSGGGGSGGGGSEVQLVQSGAEVKKPGASVKVSCKASGYTFTTYTIHWVRQAPGQGLEWMGYINPSSGYTRYNPKFKGRVTMTRDKSTSTAYMELRSLRSDDTAVYYCWTGRRDYWGQGTTVTVSSHHHHHH |  |
|  |  |  | 85 | 85 | 85 | 85 | 85 | 85 | TPP-7794 scFv with C-terminal 6xHIS tag (scFv) scFv: DIQLTQSPSFLSASVGDRVTITCRASSSVRYIYWFQQKPGKAPKLLIYATSFRQSGVPSRFSGSGSGTEYTLTISSLQPEDFATYYCHQRNSFPYTFGQGTKLEIKGGGGSGGGGSGGGGSGGGGSEVQLVQSGAEVKKPGASVKVSCKASGYTFTTYAIHWVRQAPGQGLEWMGYINPSSGYTRYNPKFKHRVTMTRDKSTSTAYMELRSLRSDDTAVYYCWTGTRDYWGQGTTVTVSSHHHHHH |  |
